Results: PMC9781295

Tests used:
[1] = molecular target: GlyT1b L288C, N-terminal FLAG-tagged (human); test: cross-linking; oxidative cross-linking on intact HEK293 cells with copper phenanthroline (CuP, 1-100 μM) for 15 min at 22 °C in HEPES buffered saline, quenched with 10 mM N-ethylmaleimide; lysates in non-reducing sample buffer, anti-FLAG immunoblot; also with ZnCl2, NMDGCl, Na+, glycine, bitopertin or LY2365109 present, or 100 mM DTT on the lysates
[2] = molecular target: GlyT1b L288C, N-terminal FLAG-tagged (human)

- maximally increased % dimer fraction (CuP 1 to 100 μM) [1]: 55.9%
- stoichiometry N [1]: 2
- [3H]glycine uptake after CuP treatment (1 to 100 μM), transport activity remaining at the highest CuP concentration, % of control without CuP [2]: 54 % of control
Substance: GlyT1b L288C, N-terminal FLAG-tagged (natural protein)
